Data published in patent publication US20220332829A1 (NANJING SANHOME PHARMACEUTICAL, published 2022).
Residue numbers refer to the chain shown, from its start.

What was measured:
[1] = molecular target: T1, B7-H3 on surface of tumor cell (786-0, MDA-MB-231, Raji-B7-H3 cells) (human, UniProt Q5ZPR3 29-534); experiment: FACS on MDA-MB-231 cells
T1 construct: whole, on cells; The making of Raji-B7-H3 cells is not described; also called B7-H3 on the surface of tumor cells; human B7-H3
T1 sequence (looked up): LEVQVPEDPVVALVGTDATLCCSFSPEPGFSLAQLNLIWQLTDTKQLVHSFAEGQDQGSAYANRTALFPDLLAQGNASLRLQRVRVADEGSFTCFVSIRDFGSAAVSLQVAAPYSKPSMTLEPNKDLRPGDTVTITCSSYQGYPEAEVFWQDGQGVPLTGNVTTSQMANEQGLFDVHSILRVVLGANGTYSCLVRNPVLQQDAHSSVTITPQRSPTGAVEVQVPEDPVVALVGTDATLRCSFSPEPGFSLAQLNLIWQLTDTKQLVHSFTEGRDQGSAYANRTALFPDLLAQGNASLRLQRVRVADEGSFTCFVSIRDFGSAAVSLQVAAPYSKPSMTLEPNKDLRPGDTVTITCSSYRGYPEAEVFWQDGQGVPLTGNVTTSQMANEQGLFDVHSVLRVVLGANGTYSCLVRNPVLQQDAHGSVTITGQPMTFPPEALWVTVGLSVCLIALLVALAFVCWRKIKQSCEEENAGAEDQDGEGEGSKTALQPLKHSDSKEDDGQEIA
Experimental: (§1) The binding activity of antibodies to B7-H3 on the surface of tumor cells was analyzed by FACS. Mean fluorescence intensity (MFI) and EC₅₀ detected by FACS indicate the binding activity of the antibody to cells. After 786-0 and MDA-MB-231 cells were digested, they were resuspended in 2% FBS-PBS solution and counted. After raji-B7-H3 cells were collected, they were resuspended in 2% FBS-PBS and counted. The above cells were plated in a cell plate with 1×10⁵ cells per well. The anti-B7-H3 antibody of the present disclosure was used as the primary antibody and added to cell plates in gradient dilution starting from 20 μg/mL with a total of 8 concentrations: 20,000 ng/mL, […], 2,000 ng/mL, 400 ng/mL, 80 ng/mL, 16 ng/mL, 3.2 ng/mL, and 0.64 ng/mL respectively. The plates were incubated at 4° C. for 1 h with hBRCA84D as the positive control antibody. PE-Anti-Human IgG (Biolegend, Cat. No. 409303, 1.25 μl/well) was used as the secondary antibody, washed, and detected for the fluorescence intensity generated by the binding of the antibody to the cell surface by a flow cytometer.

[2] = molecular target: T1, B7-H3 on surface of tumor cell (786-0, …); experiment: FACS on Raji-B7-H3 cells
Experimental: as §1

[3] = molecular target: T2, human 4Ig-B7-H3-His protein (human, UniProt Q5ZPR3 29-466); experiment: Biacore X100 SPR, 4Ig-B7-H3-His coupled to CM5 chip, antibody injected
T2 construct: also called human B7-H3 protein
T2 sequence: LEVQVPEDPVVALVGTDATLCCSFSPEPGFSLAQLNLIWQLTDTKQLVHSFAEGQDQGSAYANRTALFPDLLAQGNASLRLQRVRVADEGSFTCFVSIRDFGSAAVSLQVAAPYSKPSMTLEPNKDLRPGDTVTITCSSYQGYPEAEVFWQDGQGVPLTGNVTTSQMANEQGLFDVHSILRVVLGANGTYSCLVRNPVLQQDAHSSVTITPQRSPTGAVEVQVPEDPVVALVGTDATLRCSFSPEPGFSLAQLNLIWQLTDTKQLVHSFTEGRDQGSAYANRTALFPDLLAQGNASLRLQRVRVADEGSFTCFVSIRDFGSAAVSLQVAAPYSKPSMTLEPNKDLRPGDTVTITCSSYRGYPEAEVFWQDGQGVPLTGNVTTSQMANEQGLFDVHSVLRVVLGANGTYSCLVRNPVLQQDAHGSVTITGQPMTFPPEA
Excerpt: The humanized anti-B7-H3 antibodies prepared in Example 4 were subjected to affinity assay by Biacore. The antigen 4Ig-B7-H3-His was first coupled to the surface of a CM5 chip (GE, Cat. No. BR100012), and the active groups of the uncoupled protein were blocked with ethanolamine. After the baseline was stable, the hu39-01, hu65-13, and hBRCA84D antibodies were respectively diluted in equal proportions. The diluted antibodies of each concentration were placed on the sample injection tray of the instrument in sequence, and the program was set to inject samples respectively.

[4] = molecular target: T1, B7-H3 on surface of tumor cell (786-0, …); experiment: FACS on 786-0 cells
Experimental: as §1

[5] = molecular target: T1, B7-H3 on surface of tumor cell (786-0, …); experiment: cell-based or functional assay

B1: hu65-13 (antibody, human IgG1, V domains shown)
VH: EVQLVESGGGLVQPGGSLRLSCAASGFTFSDYGIHWVRQAPGKGLEWVSYISSGSNTIYYADTVKGRFTISRDNAKNSLYLQMNSLRAEDTAVYYCATMVTRWFYYAMDYWGQGTTVTVSS
VL: EIVLTQSPATLSLSPGERATLSCSASSSVSYMYWYQQKPGQAPRRLIYDTSKLASGVPARFSGSGSGTDYTLTISSLEPEDFAVYYCQQWSSNPPTFGQGTKLEIK
notes: expressed in HEK293E; also called humanized anti-B7-H3 antibody hu65-13
For B1, which EC50 [1] is on record?
Its EC50 is 0.14 µg/mL.

And the “Mean fluorescence intensity (MFI)” value [1]?
The value was 151000.

And the EC50 [2]?
Its EC50 is 0.266 µg/mL.

What about the “Mean fluorescence intensity (MFI)” value [2] of the same binder?
The value was 566000.

What about the Kd [3] of the same binder?
Its Kd is 0.198 nM.

And the koff [3]?
The koff was 1.89e-05 s⁻¹.

And the kon [3]?
The kon was 95400 M⁻¹ s⁻¹.

What about the EC50 [4] of the same binder?
Its EC50 is 0.266 µg/mL.

And the “Mean fluorescence intensity (MFI)” value [4]?
The value was 566000.

B2: SHS007-72-CHI (antibody, V domains shown)
VH: QVQLVQSGPELKKPGETVKISCKASGYTFTNYGMYWVKQAPGEGLKWMGWINTHTGEPTYGDDFKGRFAFSLETPATIAFLEISILKNEDTATYFCARKSFGDFIYAMDFWGQGTSVTVSS
VL: DIQMTQTTSSLSASLGDRVTISCRASQDIGKYLNWYQQKPDGTVKLLIYYTSRLHLGVPSRFSGSGSGTDFSLTISNLEQEDTATYFCQQGTTLPPTFGGGTKVEIK
For B2, which “EC50 Ratio (ADCC, LDH method; EC50 of hBRCA84D divided by EC50 of the antibody; 786-0 target cells, human PBMC effectors)” value [5] is on record?
Its value is 7.1.

B3: SHS007-59-CHI (antibody, V domains shown)
VH: EVQLQQSGPELVKPGTSVKIPCKASGYTFTDYHMDWVKQSHGKSLEWIGDINPNNGGTIYNQKFKGKATLTVDKSSSTAYMELRGLTSEDTAVYYCARGGLHDYWGPGTTLTVSS
VL: DIVMTQSQKFMSTKVGDRVSITCKASQSVGTAVAWYQQKPGQSPKLLIYSTSNRYTGVPDRFTNNASGTDFTLTISNVQSADLADYFCQQYGNYPLTFGGGTKLEIK
How did the “EC50 Ratio (ADCC, LDH method; EC50 of hBRCA84D divided by EC50 of the antibody; 786-0 target cells, human PBMC effectors)” value [5] turn out when B3 was run?
The value was 4.4.

B4: SHS007-39-CHI (antibody, human IgG1, V domains shown)
VH: EVQLQQSGPELVKPGASVKISCKTSGYTFTEYTIHWMKQSHGKSLEWIGGLNPNTGGTTYNQKFKDKATLTVDKSSSTAYMALRSLTSEDSAVYYCARKGGWFFLDYWGQGTTLIVSS
VL: QIVLTQSPAIMSASPREKVTMTCSASSSVSYMHWYQQKSGTSPKRWIYDTSKLASGVPARFRGSGSGTSYSLTISNMEAEDAATYYCQQWSSNPPTFGGGTKVEIK
With B4 as the binder, how does the “EC50 Ratio (ADCC, LDH method; EC50 of hBRCA84D divided by EC50 of the antibody; 786-0 target cells, human PBMC effectors)” value [5] read?
The value was 212.

B5: SHS007-65-CHI (antibody, human IgG1, V domains shown)
VH: B1 VH with Q13K, R19K, G42E, S49A, S78T, Y80F, N84T, A88S, V93I, T116S
VL: B4 VL with R16G, H33Y, R62S, S75N, G99A, V103L, I105L
With B5 as the binder, how does the “EC50 Ratio (ADCC, LDH method; EC50 of hBRCA84D divided by EC50 of the antibody; 786-0 target cells, human PBMC effectors)” value [5] read?
Its value is 18.6.

B6: SHS007-95-CHI (antibody, V domains shown)
VH: EVKLVESGGELVKPGGSLKLSCAASGFTLSSYVMSWVRQTPEKRLEWVAAISRYGDPTNFPDNMRDRFTISRDNAKNTLSLQMSSLRSEDTALYFCARHHFDGTSWYFDVWGPGTTVTVSS
VL: EIVLTQSPALMAASPGERVTITCSVSSSISSIDLHWYQQKSGTFPKLWIYGTSNLASGVPVRFSGSGSGTSYSLTISTMEAEDAATYYCQQWSSFPLTFGSGTKLEIK
B6 was tested. Which “EC50 Ratio (ADCC, LDH method; EC50 of hBRCA84D divided by EC50 of the antibody; 786-0 target cells, human PBMC effectors)” value [5] did it give?
Its value is 11.4.

B7: SHS007-17-CHI (antibody, human IgG1, V domains shown)
VH: QVHLQQSGPELVKPGASVKMSCKASGFTFTDYVVSWVKQRTGQGLEWIGEIYPGGGFIHYNEKFKGKATLTADKSSNTAYMQLTSLTSEDSAVYFCARFPKYYFDYWGQGTTLTVSS
VL: DVVMTQTPLSLPVSLGDQASISCRSSQSIVHSNRYTYLEWYLQKPGQSLKLLIYGVSNRFSGVPDRFSGSGSGTDFTLKISRVEAEDMGVYYCFQSTLFPWTFGGGTKLEIK
How did the “EC50 Ratio (ADCC, LDH method; EC50 of hBRCA84D divided by EC50 of the antibody; 786-0 target cells, human PBMC effectors)” value [5] turn out when B7 was run?
The value was 20.1.

B8: SHS007-51-CHI (antibody, V domains shown)
VH: EVQLVESGGDSVKPGGSLKLSCAASGFTFSSFGMSWVRQTPDKRLEWVATINSGDNYSYSPDSVKGRFTISRDNAKNILYLQMSSLKSEDTAMYYCARPHIFYYGSPAWFAYWGQGTLVTVSA
VL: DVVMTQTPLSLPVSLGDQASVSCRSRQSLVHSNGNTYLHWYLQRPGQSPKLLIYKVSNRFSGVPDRFSGSGSGTDFTLKISRVEAEDLGVYFCSQSTHVPLTFGAGTKLELK
How did the “EC50 Ratio (ADCC, LDH method; EC50 of hBRCA84D divided by EC50 of the antibody; 786-0 target cells, human PBMC effectors)” value [5] turn out when B8 was run?
Its value is 6.6.
